Test results published in publication PMC11574245, “Transplacental SARS-CoV-2 protein ORF8 binds to complement C1q to trigger fetal inflammation” (The EMBO Journal, 2024).

These binders were tested against T1, C1q Human protein (human, UniProt P02745 23-245; P02746 28-253; P02747 29-245) (assay: ELISA; plates coated with each of 28 ORF8 peptides (1 mM in carbonate buffer 50 mM pH 9.6, overnight 2-8 °C); human C1q (5, 10, 25 or 100 nM in 3% BSA/TBST) 2 h at room temperature; detected with sheep polyclonal anti-C1Q-HRP). Details: both partners purified.
T1 construct: human complement C1q subcomponent subunit A (A chain of the C1q complex); human complement C1q subcomponent subunit B (B chain of the C1q complex); human complement C1q subcomponent subunit C (C chain of the C1q complex); The methods call it recombinant human C1q; also called human C1q; purified human C1q protein; source: bought: Complement Technology (Cat. A099); copies: 6 + 6 + 6
T1 sequence (P02745 23-245, chain 1 of 3): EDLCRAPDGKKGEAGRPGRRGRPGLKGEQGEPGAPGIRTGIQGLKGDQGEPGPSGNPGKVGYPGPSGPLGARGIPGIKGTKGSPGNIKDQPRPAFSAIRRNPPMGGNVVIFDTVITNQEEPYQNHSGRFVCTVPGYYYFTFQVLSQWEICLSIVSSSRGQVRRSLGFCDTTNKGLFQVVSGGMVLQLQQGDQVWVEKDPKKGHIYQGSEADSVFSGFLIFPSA
T1 sequence (P02746 28-253, chain 2 of 3): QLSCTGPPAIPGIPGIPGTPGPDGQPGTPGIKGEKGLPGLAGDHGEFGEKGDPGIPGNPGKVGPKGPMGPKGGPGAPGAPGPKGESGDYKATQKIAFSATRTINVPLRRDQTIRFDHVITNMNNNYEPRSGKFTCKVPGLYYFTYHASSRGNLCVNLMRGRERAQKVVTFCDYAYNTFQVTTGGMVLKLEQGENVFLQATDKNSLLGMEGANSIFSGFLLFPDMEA
T1 sequence (P02747 29-245, chain 3 of 3): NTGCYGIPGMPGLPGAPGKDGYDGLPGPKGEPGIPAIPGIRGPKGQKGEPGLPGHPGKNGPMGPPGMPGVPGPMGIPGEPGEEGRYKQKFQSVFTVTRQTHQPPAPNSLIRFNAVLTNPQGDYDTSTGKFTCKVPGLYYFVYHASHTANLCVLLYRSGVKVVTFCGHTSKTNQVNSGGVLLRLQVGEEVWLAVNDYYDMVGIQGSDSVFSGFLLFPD

Q: Does CPIHFYSKWYIRVGA [SARS-CoV-2 ORF8 peptide #10 (C37-A51)] bind?
A: binds

Q: Does YIDIGNYTVSCLPFT [SARS-CoV-2 ORF8 peptide #19 (Y73-T87)] bind?
A: binds

Q: Does SLVVRCSFYEDFLEY [SARS-CoV-2 ORF8 peptide #25 (S97-Y111)] bind?
A: binds
